# Molecular target: F pilus (conjugative pilus encoded by the F′ plasmid) on E. coli TOP10F′ (F+) cells (E. coli (endogenous on TOP10F′, F′ plasmid)) (UniProt P04737)
# UniProt P04737, sequence (P04737 52-121): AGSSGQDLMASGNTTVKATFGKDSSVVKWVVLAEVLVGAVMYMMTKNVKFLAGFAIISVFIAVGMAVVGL
substance,measurement,value
g3p on replicating phage M13-km^R (from UniProt P69168 19-424) (natural protein),"inhibition of F-mediated conjugation by replicating phage M13-km^R (no pre-infection), binding model applied naively without phage replication and infection: apparent Kd",2.4 pM
